From PMC11850643 (Nature Communications, 2025)

Biological target: the molecule itself
Assay: SEC

B1: full-length MmpL4 (M. tuberculosis) (natural protein)
chain: MSTKFANDSNTNARPEKPFIARMIHAFAVPIILGWLAVCVVVTVFVPSLEAVGQERSVSLSPKDAPSFEAMGRIGMVFKEGDSDSFAMVIIEGNQPLGDAAHKYYDGLVAQLRADKKHVQSVQDLWGDPLTAAGVQSNDGKAAYVQLSLAGNQGTPLANESVEAVRSIVESTPAPPGIKAYVTGPSALAADMHHSGDRSMARITMVTVAVIFIMLLLVYRSIITVVLLLITVGVELTAARGVVAVLGHSGAIGLTTFAVSLLTSLAIAAGTDYGIFIIGRYQEARQAGEDKEAAYYTMYRGTAHVILGSGLTIAGATFCLSFARMPYFQTLGIPCAVGMLVAVAVALTLGPAVLHVGSRFGLFDPKRLLKVRGWRRVGTVVVRWPLPVLVATCAIALVGLLALPGYKTSYNDRDYLPDFIPANQGYAAADRHFSQARMKPEILMIESDHDMRNPADFLVLDKLAKGIFRVPGISRVQAITRPEGTTMDHTSIPFQISMQNAGQLQTIKYQRDRANDMLKQADEMATTIAVLTRMHSLMAEMASTTHRMVGDTEEMKEITEELRDHVADFDDFWRPIRSYFYWEKHCYGIPICWSFRSIFDALDGIDKLSEQIGVLLGDLREMDRLMPQMVAQIPPQIEAMENMRTMILTMHSTMTGIFDQMLEMSDNATAMGKAFDAAKNDDSFYLPPEVFKNKDFQRAMKSFLSSDGHAARFIILHRGDPQSPEGIKSIDAIRTAAEESLKGTPLEDAKIYLAGTAAVFHDISEGAQWDLLIAAISSLCLIFIIMLIITRAFIAAAVIVGTVALSLGASFGLSVLLWQHILAIHLHWLVLAMSVIVLLAVGSDYNLLLVSRFKQEIGAGLKTGIIRSMGGTGKVVTNAGLVFAVTMASMAVSDLRVIGQVGTTIGLGLLFDTLIVRSFMTPSIAALLGRWFWWPLRVRSRPARTPTVPSETQPAGRPLAMSSDRLG
B1: binds.
